In article PMC3032639:

How the values were obtained:
[1] = molecular target: TraB C-terminal domain (TraBCT) (E. coli (plasmid pKM101)); test: SEC
[2] = molecular target: TraB C-terminal domain (TraBCT) (E. coli (plasmid pKM101)); test: SAXS; beamline ID02 (ESRF), buffer GFsol, 20°C; TraBCT 2.1-8.2 mg/ml, LvhB4 2-8.9 mg/ml; molecular mass from forward scattering I(0), absolute calibration with water; self-association
[3] = molecular target: TraB full-length (TraBFL), the VirB4 homolog encoded by the E. coli pKM101 plasmid, membrane-extracted form (E. coli (plasmid pKM101)) (UniProt P41067); test: SEC
[4] = molecular target: TraB full-length (TraBFL), the VirB4 homolog encoded by the E. coli pKM101 plasmid, membrane-extracted form (E. coli (plasmid pKM101)) (UniProt P41067); test: SAXS; beamline X33 (EMBL-Hamburg), buffer GFmb; TraBFL 3-13.5 mg/ml, TraBNT 1.3-8.2 mg/ml; molecular mass from forward scattering I(0), calibrated with BSA; self-association
[5] = molecular target: TraB N-terminal domain (TraBNT), membrane-extracted form (E. coli (plasmid pKM101)) (UniProt P41067); test: SEC
[6] = molecular target: TraB N-terminal domain (TraBNT), membrane-extracted form (E. coli (plasmid pKM101)) (UniProt P41067); test: SAXS; beamline X33 (EMBL-Hamburg), buffer GFmb; TraBFL 3-13.5 mg/ml, TraBNT 1.3-8.2 mg/ml; molecular mass from forward scattering I(0), calibrated with BSA; self-association

Substance: TraB C-terminal domain (TraBCT) (domain or fragment)
- stoichiometry N [1]: 2
- stoichiometry N [2]: 2

Substance: TraB full-length (TraBFL), the VirB4 homolog encoded by the E. coli pKM101 plasmid, membrane-extracted form (from UniProt P41067 1-475) (natural protein)
- stoichiometry N [3]: 2
- stoichiometry N [4]: 2

Substance: TraB N-terminal domain (TraBNT), membrane-extracted form (from UniProt P41067 1-442) (domain or fragment)
- stoichiometry N [5]: 2
- stoichiometry N [6]: 2
